Assays:
[1] = target: T1, MHC class I molecule HLA-A*0201 (iTopia plate-bound monomer) (biotin (bound to streptavidin-coated plate)); assay: iTopia off-rate assay, 37 C; fit R^2 0.05
T1 construct: also called A2
Experimental: (§1) The 9 mers were tested for Peptide Binding, Off Rate and Affinity using iTopia Epitope Discovery System in accordance with the manufacturer's instructions. Briefly, 96 well microtitre plates coated with MHC molecules representing different MHC alleles are used to identify candidate peptides. […] Determinations are performed in duplicate using an ELISA plate reader and included allele specific positive controls.
(§2) A one-phase exponential decay curve, with a plateau given equal to 0, was generated using GraphPad Prism® software, which calculated the t1/2 and goodness-of-fit, as measured by r², for each peptide.

[2] = target: T1, MHC class I molecule HLA-A*0201 (iTopia …); assay: iTopia off-rate assay, 37 C; fit R^2 0.99
Experimental: as §1, §2

[3] = target: T1, MHC class I molecule HLA-A*0201 (iTopia …); assay: iTopia off-rate assay, 37 C; fit R^2 0.96
Experimental: as §1, §2

[4] = target: T1, MHC class I molecule HLA-A*0201 (iTopia …); assay: iTopia off-rate assay, 37 C; fit R^2 0.57
Experimental: as §1, §2

[5] = target: T1, MHC class I molecule HLA-A*0201 (iTopia …); assay: iTopia off-rate assay, 37 C; fit R^2 0.89
Experimental: as §1, §2

[6] = target: T2, MHC class I molecule HLA-B*0702 (iTopia plate-bound monomer) (biotin (bound to streptavidin-coated plate)); assay: iTopia off-rate assay, 37 C; fit R^2 0.44
T2 construct: Commercial iTopia system; also called B7
Experimental: as §1, §2

[7] = target: T1, MHC class I molecule HLA-A*0201 (iTopia …); assay: iTopia off-rate assay, 37 C; fit R^2 0.7
Experimental: as §1, §2

[8] = target: T1, MHC class I molecule HLA-A*0201 (iTopia …); assay: iTopia off-rate assay, 37 C; fit R^2 0.82
Experimental: as §1, §2

[9] = target: T3, MHC class I molecule HLA-A*0301 (iTopia plate-bound monomer) (biotin (bound to streptavidin-coated plate)); assay: iTopia off-rate assay, 37 C; fit R^2 0.95
T3 construct: also called A3
Experimental: as §1, §2

[10] = target: T1, MHC class I molecule HLA-A*0201 (iTopia …); assay: iTopia off-rate assay, 37 C; fit R^2 0.8
Experimental: as §1, §2

[11] = target: T1, MHC class I molecule HLA-A*0201 (iTopia …); assay: iTopia off-rate assay, 37 C; fit R^2 0.72
Experimental: as §1, §2

[12] = target: T2, MHC class I molecule HLA-B*0702 (iTopia …); assay: iTopia off-rate assay, 37 C; fit R^2 0.79
Experimental: as §1, §2

[13] = target: T3, MHC class I molecule HLA-A*0301 (iTopia …); assay: iTopia off-rate assay, 37 C; fit R^2 0.9
Experimental: as §1, §2

[14] = target: T1, MHC class I molecule HLA-A*0201 (iTopia …); assay: iTopia off-rate assay, 37 C; fit R^2 0.9
Experimental: as §1, §2

[15] = target: T2, MHC class I molecule HLA-B*0702 (iTopia …); assay: iTopia off-rate assay, 37 C; fit R^2 0.11
Experimental: as §1, §2

[16] = target: T1, MHC class I molecule HLA-A*0201 (iTopia …); assay: iTopia off-rate assay, 37 C; fit R^2 0.77
Experimental: as §1, §2

[17] = target: T2, MHC class I molecule HLA-B*0702 (iTopia …); assay: iTopia off-rate assay, 37 C; fit R^2 0.68
Experimental: as §1, §2

[18] = target: T1, MHC class I molecule HLA-A*0201 (iTopia …); assay: iTopia off-rate assay, 37 C; fit R^2 0.92
Experimental: as §1, §2

[19] = target: T1, MHC class I molecule HLA-A*0201 (iTopia …); assay: iTopia off-rate assay, 37 C; fit R^2 0.83
Experimental: as §1, §2

[20] = target: T1, MHC class I molecule HLA-A*0201 (iTopia …); assay: iTopia off-rate assay, 37 C; fit R^2 0.64
Experimental: as §1, §2

[21] = target: T1, MHC class I molecule HLA-A*0201 (iTopia …); assay: iTopia off-rate assay, 37 C; fit R^2 0.31
Experimental: as §1, §2

[22] = target: T1, MHC class I molecule HLA-A*0201 (iTopia …); assay: iTopia off-rate assay, 37 C; fit R^2 0.66
Experimental: as §1, §2

[23] = target: T1, MHC class I molecule HLA-A*0201 (iTopia …); assay: iTopia off-rate assay, 37 C; fit R^2 0.33
Experimental: as §1, §2

[24] = target: T1, MHC class I molecule HLA-A*0201 (iTopia …); assay: iTopia off-rate assay, 37 C; fit R^2 0.02
Experimental: as §1, §2

[25] = target: T3, MHC class I molecule HLA-A*0301 (iTopia …); assay: iTopia off-rate assay, 37 C; fit R^2 0.94
Experimental: as §1, §2

[26] = target: T1, MHC class I molecule HLA-A*0201 (iTopia …); assay: iTopia off-rate assay, 37 C; fit R^2 0.85
Experimental: as §1, §2

[27] = target: T1, MHC class I molecule HLA-A*0201 (iTopia …); assay: iTopia off-rate assay, 37 C; fit R^2 0.79
Experimental: as §1, §2

[28] = target: T1, MHC class I molecule HLA-A*0201 (iTopia …); assay: iTopia off-rate assay, 37 C; fit R^2 0.6
Experimental: as §1, §2

[29] = target: T1, MHC class I molecule HLA-A*0201 (iTopia …); assay: iTopia off-rate assay, 37 C; fit R^2 0.08
Experimental: as §1, §2

[30] = target: T2, MHC class I molecule HLA-B*0702 (iTopia …); assay: iTopia off-rate assay, 37 C; fit R^2 0.95
Experimental: as §1, §2

[31] = target: T1, MHC class I molecule HLA-A*0201 (iTopia …); assay: iTopia off-rate assay, 37 C; fit R^2 0.74
Experimental: as §1, §2

[32] = target: T2, MHC class I molecule HLA-B*0702 (iTopia …); assay: iTopia off-rate assay, 37 C; fit R^2 0.69
Experimental: as §1, §2

[33] = target: T1, MHC class I molecule HLA-A*0201 (iTopia …); assay: iTopia off-rate assay, 37 C; fit R^2 0.78
Experimental: as §1, §2

B1: 5T4 9-mer peptide 191 IKKWMHNIR (peptide)
peptide: IKKWMHNIR
notes: also called Peptide No 191
[1]
  t½ half life: 14.6 h

B2: 5T4 9-mer peptide 13 LLGWVSSSS (peptide)
peptide: LLGWVSSSS
notes: also called Peptide No 13
[2]
  t½ half life: 1.8 h

B3: 5T4 9-mer peptide 123 SLVSLTYVS (peptide)
peptide: SLVSLTYVS
notes: also called Peptide No 123
[3]
  t½ half life: 0.9 h

B4: 5T4 9-mer peptide 133 LEDNALKVL (peptide)
peptide: LEDNALKVL
notes: also called Peptide No 133
[4]
  t½ half life: 5.7 h

B5: 5T4 9-mer peptide 39 CVNRNLTEV (peptide)
peptide: CVNRNLTEV
notes: also called Peptide No 39
[5]
  t½ half life: 1.3 h
[6]
  t½ half life: 42 min

B6: 5T4 9-mer peptide 10 ARLALVLLG (peptide)
peptide: ARLALVLLG
notes: also called Peptide No 10
[7]
  t½ half life: 72 min

B7: 5T4 9-mer peptide 119 RHLDLSNNS (peptide)
peptide: RHLDLSNNS
[8]
  t½ half life: 1.1 h

B8: 5T4 9-mer peptide 124 VSLTYVSFR (peptide)
peptide: VSLTYVSFR
[9]
  t½ half life: 12 min

B9: 5T4 9-mer peptide 202 YEINADPRL (peptide)
peptide: YEINADPRL
notes: also called Peptide No 202
[10]
  t½ half life: 36 min

B10: 5T4 9-mer peptide 75 LSHNPLADL (peptide)
peptide: LSHNPLADL
notes: also called Peptide No 75
[11]
  t½ half life: 1.3 h

B11: 5T4 9-mer peptide 188 YLNRKGIKK (peptide)
peptide: YLNRKGIKK
notes: also called Peptide No 188
[4]
  t½ half life: 6.5 h
[12]
  t½ half life: 3.3 h
[13]
  t½ half life: 42 min

B12: 5T4 9-mer peptide 63 LSGSRLDEV (peptide)
peptide: LSGSRLDEV
notes: also called Peptide No 63
[14]
  t½ half life: 30 min
[15]
  t½ half life: 2.9 h

B13: 5T4 9-mer peptide 105 LQGLRRLEL (peptide)
peptide: LQGLRRLEL
[16]
  t½ half life: 2.1 h
[17]
  t½ half life: 12 min

B14: 5T4 9-mer peptide 51 NQLAVLPAG (peptide)
peptide: NQLAVLPAG
notes: also called Peptide No 51
[18]
  t½ half life: 3.2 h

B15: 5T4 9-mer peptide 128 RNLTHLESL (peptide)
peptide: RNLTHLESL
notes: also called Peptide No 128
[19]
  t½ half life: 54 min

B16: 5T4 9-mer peptide 135 ALKVLHNGT (peptide)
peptide: ALKVLHNGT
notes: also called Peptide No 135
[20]
  t½ half life: 1.5 h

B17: 5T4 9-mer peptide 189 NRKGIKKWM (peptide)
peptide: NRKGIKKWM
[21]
  t½ half life: 10 h

B18: 5T4 9-mer peptide 97 RSFEGMVVA (peptide)
peptide: RSFEGMVVA
notes: also called Peptide No 97
[2]
  t½ half life: 0.7 h

B19: 5T4 9-mer peptide 112 LYLPRDVLA (peptide)
peptide: LYLPRDVLA
notes: also called Peptide No 112
[22]
  t½ half life: 3.4 h

B20: 5T4 9-mer peptide 60 ELAALNLSG (peptide)
peptide: ELAALNLSG
notes: also called Peptide No 60
[20]
  t½ half life: 1.6 h

B21: 5T4 9-mer peptide 176 SLQTSYVFL (peptide)
peptide: SLQTSYVFL
[23]
  t½ half life: 12.4 h

B22: 5T4 9-mer peptide 98 FEGMVVAAL (peptide)
peptide: FEGMVVAAL
notes: also called Peptide No 98
[3]
  t½ half life: 1.1 h

B23: 5T4 9-mer peptide 83 SNASVSAPS (peptide)
peptide: SNASVSAPS
notes: also called Peptide No 83
[24]
  t½ half life: 15.8 h

B24: 5T4 9-mer peptide 129 LTHLESLHL (peptide)
peptide: LTHLESLHL
[10]
  t½ half life: 60 min

B25: 5T4 9-mer peptide 110 SNHFLYLPR (peptide)
peptide: SNHFLYLPR
notes: also called Peptide No 110
[25]
  t½ half life: 54 min
[26]
  t½ half life: 1.2 h

B26: 5T4 9-mer peptide 67 VRAGAFEHL (peptide)
peptide: VRAGAFEHL
notes: also called Peptide No 67
[6]
  t½ half life: 24 min

B27: 5T4 9-mer peptide 74 LDLSHNPLA (peptide)
peptide: LDLSHNPLA
notes: also called Peptide No 74
[27]
  t½ half life: 5.4 h

B28: 5T4 9-mer peptide 193 MHNIRDACR (peptide)
peptide: MHNIRDACR
notes: also called Peptide No 193
[28]
  t½ half life: 5.3 h

B29: 5T4 9-mer peptide 50 TGNQLAVLP (peptide)
peptide: TGNQLAVLP
notes: also called Peptide No 50
[29]
  t½ half life: 8.7 h

B30: 5T4 9-mer peptide 111 HFLYLPRDV (peptide)
peptide: HFLYLPRDV
[8]
  t½ half life: 2.9 h

B31: 5T4 9-mer peptide 45 LPAYVRNLF (peptide)
peptide: LPAYVRNLF
notes: also called Peptide No 45
[30]
  t½ half life: 1.7 h

B32: 5T4 9-mer peptide 49 FLTGNQLAV (peptide)
peptide: FLTGNQLAV
notes: also called Peptide No 49
[31]
  t½ half life: 10.6 h

B33: 5T4 9-mer peptide 175 PPSLQTSYV (peptide)
peptide: PPSLQTSYV
notes: also called Peptide No 175
[29]
  t½ half life: 12.7 h

B34: 5T4 9-mer peptide 36 AARTVKCVN (peptide)
peptide: AARTVKCVN
notes: also called Peptide No 36
[32]
  t½ half life: 1.4 h
[21]
  t½ half life: 11.1 h

B35: 5T4 9-mer peptide 12 LVLLGWVSS (peptide)
peptide: LVLLGWVSS
notes: also called Peptide No 12
[18]
  t½ half life: 2.6 h

B36: 5T4 9-mer peptide 178 SYVFLGIVL (peptide)
peptide: SYVFLGIVL
notes: also called Peptide No 178
[33]
  t½ half life: 5.1 h
[32]
  t½ half life: 0.9 h

B37: 5T4 9-mer peptide 206 LTNLSSNSD (peptide)
peptide: LTNLSSNSD
[7]
  t½ half life: 42 min

— patent publication US20090280138A1 (OXFORD BIOMEDICA UK, published 2009)
